Experimental data as given in patent publication US20090118184A1 (UNIVERSITY OF ROCHESTER, published 2009).
Where a chain is given by its changes, count along the chain named.

Key:
Assay in all cases: cell-based or functional assay
[1] = target: T1, factor VIIIa A1/A3C1C2 dimer, S1949A (human, UniProt P00451 20-391; P00451 1709-2351)
T1 sequence 1: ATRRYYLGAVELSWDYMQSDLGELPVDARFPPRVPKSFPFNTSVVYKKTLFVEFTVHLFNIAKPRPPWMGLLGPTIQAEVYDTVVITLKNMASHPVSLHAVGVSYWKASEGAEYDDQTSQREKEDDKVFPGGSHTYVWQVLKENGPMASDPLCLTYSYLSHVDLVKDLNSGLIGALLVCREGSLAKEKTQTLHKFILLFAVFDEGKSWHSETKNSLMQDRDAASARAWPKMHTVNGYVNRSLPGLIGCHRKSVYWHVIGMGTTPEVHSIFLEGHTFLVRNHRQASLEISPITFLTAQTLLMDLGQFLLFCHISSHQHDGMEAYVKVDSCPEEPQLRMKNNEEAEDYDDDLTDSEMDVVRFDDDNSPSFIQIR
T1 sequence 2: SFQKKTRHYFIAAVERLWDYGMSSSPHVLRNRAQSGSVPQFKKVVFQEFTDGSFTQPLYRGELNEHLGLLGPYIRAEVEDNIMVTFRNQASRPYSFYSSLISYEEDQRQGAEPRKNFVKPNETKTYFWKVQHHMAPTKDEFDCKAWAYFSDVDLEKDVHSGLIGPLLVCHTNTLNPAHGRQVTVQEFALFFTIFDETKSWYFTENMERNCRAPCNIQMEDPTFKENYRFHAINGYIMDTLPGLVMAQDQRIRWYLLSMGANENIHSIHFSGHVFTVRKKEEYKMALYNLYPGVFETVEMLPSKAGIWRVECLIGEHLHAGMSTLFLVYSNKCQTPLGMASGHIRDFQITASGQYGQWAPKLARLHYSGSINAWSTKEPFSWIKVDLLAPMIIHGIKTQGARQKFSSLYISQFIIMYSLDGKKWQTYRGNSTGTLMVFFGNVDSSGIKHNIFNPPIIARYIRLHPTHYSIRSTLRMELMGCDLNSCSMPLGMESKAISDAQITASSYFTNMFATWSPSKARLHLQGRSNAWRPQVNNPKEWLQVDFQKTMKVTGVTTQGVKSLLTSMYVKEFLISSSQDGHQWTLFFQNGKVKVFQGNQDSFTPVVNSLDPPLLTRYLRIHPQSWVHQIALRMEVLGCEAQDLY

[2] = target: T2, factor VIIIa A1/A3C1C2 dimer, Y1786F (human, UniProt P00451 20-391; P00451 1709-2351)
T2 sequence 1: T1 sequence 1
T2 sequence 2: T1 sequence 2 with Y97F, A260S

[3] = target: T3, factor VIIIa A1/A3C1C2 dimer, wild type (human, UniProt P00451 20-391; P00451 1709-2351)
T3 sequence 1: T1 sequence 1
T3 sequence 2: T1 sequence 2 with A260S

[4] = target: T4, factor VIIIa A1/A3C1C2 dimer, S313A (human, UniProt P00451 20-391; P00451 1709-2351)
T4 chain 1: T1 sequence 1 with S313A
T4 chain 2: T1 sequence 2 with A260S

B1: factor VIIIa A2 subunit, wild type (other)
chain: SVAKKHPKTWVHYIAAEEEDWDYAPLVLAPDDRSYKSQYLNNGPQRIGRKYKKVRFMAYTDETFKTREAIQHESGILGPLLYGEVGDTLLIIFKNQASRPYNIYPHGITDVRPLYSRRLPKGVKHLKDFPILPGEIFKYKWTVTVEDGPTKSDPRCLTRYYSSFVNMERDLASGLIGPLLICYKESVDQRGNQIMSDKRNVILFSVFDENRSWYLTENIQRFLPNPAGVQLEDPEFQASNIMHSINGYVFDSLQLSVCLHEVAYWYILSIGAQTDFLSVFFSGYTFKHKMVYEDTLTLFPFSGETVFMSMENPGLWILGCHNSDFRNRGMTALLKVSSCDKNTGDYYEDSYEDISAYLLSKNNAIEPR
- Factor VIIIa decay rate relative to wild type, FIXa (+) [1]: 1.14 relative to wild type
- Factor VIIIa decay rate, FIXa (+) [1]: 0.0129 min⁻¹
- Factor VIIIa decay rate relative to wild type, FIXa (+) [2]: 20.9 relative to wild type
- Factor VIIIa decay rate relative to wild type, FIXa (-) [2]: 17 relative to wild type
- Factor VIIIa decay rate, FIXa (+) [2]: 0.236 min⁻¹
- Factor VIIIa decay rate, FIXa (-) [2]: 1.07 min⁻¹
- Factor VIIIa decay rate relative to wild type, FIXa (+) [3]: 1 relative to wild type
- Factor VIIIa decay rate relative to wild type, FIXa (-) [3]: 1 relative to wild type
- Factor VIIIa decay rate, FIXa (+) [3]: 0.0113 min⁻¹
- Factor VIIIa decay rate, FIXa (-) [3]: 0.0631 min⁻¹
- Factor VIIIa decay rate relative to wild type, FIXa (+) [4]: 1.86 relative to wild type
- Factor VIIIa decay rate, FIXa (+) [4]: 0.021 min⁻¹
